Laboratory results taken from US7422745 (IXSYS, dated 2008).
Changes are numbered by the printed parent chain.

B1: LM609 grafted antibody Fab (parent molecule) (Fab, V domains shown)
VH: QVQLVESGGGVVQPGRSLRLSCAASGFTFSSYDMSWVRQAPGKGLEWVAKVSSGGGSTYYLDTVQGRFTISRDNSKNTLYLQMNSLRAEDTAVYYCARHNYGSFAYWGQGTTVTVSS
VL: EIVLTQSPATLSLSPGERATLSCQASQSISNHLHWYQQRPGQAPRLLIRYRSQSISGIPARFSGSGSGTDFTLTISSLEPEDFAVYYCQQSGSWPHTFGGGTKVEIK
notes: Fab expressed from M13 phage vector in E. coli, purified on protein A; also called LM609 grafted Fab; wild type
B2: LM609 grafted antibody combinatorial clone C59 (Fab, V domains shown)
VH: B1 VH with L61P, Y106D
VL: B1 VL with H32F
notes: Fab
B3: LM609 grafted antibody variant S102 (Fab, V domains shown)
VH: B1 VH with Y106S
VL: B1 VL
notes: Fab; also called clone S102

Experiments:
[1] = biological target: integrin αvβ3 on cells (M21 human melanoma cells; human umbilical vein endothelial cells) (human) (UniProt P06756); experiment: cell-based or functional assay
[2] = biological target: T1, integrin αvβ3 (human vitronectin receptor), purified from human placenta (human, UniProt P06756 31-1048; P05106 27-788); experiment: ELISA titration of bacterial cell lysate containing Fab on immobilized αvβ3, detection with goat anti-human kappa-alkaline phosphatase
T1 construct: mature; coated on ELISA plates or immobilized on a BIAcore chip; Biotinylated in capture lift and capture ELISA screens; also called avb3; αvβ3 receptor

[3] = biological target: T1, integrin αvβ3 (human vitronectin …); experiment: ELISA on immobilized αvβ3 incubated with 0.1 µg/ml biotinylated fibrinogen (the blocked ligand) and various concentrations of Fab for 3 h at 37 °C; bound fibrinogen detected with NeutrAvidin-alkaline phosphatase

T1 sequence (P06756 31-1048, form in doubt, chain 1 of 2): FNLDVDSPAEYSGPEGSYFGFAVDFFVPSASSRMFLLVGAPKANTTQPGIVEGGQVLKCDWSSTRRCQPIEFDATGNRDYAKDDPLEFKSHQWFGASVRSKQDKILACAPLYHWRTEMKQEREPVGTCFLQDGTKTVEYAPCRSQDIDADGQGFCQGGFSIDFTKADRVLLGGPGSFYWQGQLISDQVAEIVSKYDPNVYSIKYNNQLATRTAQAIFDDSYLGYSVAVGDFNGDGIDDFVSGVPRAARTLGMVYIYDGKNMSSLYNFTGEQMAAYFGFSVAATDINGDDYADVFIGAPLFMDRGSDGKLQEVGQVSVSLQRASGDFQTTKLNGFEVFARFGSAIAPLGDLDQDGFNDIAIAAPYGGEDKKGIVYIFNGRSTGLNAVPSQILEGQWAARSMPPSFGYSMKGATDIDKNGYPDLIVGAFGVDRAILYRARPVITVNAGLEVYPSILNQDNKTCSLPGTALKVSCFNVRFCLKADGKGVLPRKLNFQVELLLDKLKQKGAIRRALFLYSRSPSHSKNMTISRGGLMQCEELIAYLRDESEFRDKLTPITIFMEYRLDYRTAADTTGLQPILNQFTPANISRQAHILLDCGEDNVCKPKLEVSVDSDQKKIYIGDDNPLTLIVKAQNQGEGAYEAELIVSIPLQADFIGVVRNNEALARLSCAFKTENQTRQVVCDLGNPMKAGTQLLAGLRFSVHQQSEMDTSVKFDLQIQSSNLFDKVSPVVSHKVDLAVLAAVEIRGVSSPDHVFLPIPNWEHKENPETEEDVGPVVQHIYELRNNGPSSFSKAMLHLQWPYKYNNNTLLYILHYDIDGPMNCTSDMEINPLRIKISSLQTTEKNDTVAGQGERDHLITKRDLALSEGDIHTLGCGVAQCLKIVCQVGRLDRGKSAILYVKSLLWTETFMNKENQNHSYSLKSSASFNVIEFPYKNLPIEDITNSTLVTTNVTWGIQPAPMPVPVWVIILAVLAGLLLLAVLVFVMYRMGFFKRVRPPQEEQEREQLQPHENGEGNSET
T1 sequence (P05106 27-788, form in doubt, chain 2 of 2): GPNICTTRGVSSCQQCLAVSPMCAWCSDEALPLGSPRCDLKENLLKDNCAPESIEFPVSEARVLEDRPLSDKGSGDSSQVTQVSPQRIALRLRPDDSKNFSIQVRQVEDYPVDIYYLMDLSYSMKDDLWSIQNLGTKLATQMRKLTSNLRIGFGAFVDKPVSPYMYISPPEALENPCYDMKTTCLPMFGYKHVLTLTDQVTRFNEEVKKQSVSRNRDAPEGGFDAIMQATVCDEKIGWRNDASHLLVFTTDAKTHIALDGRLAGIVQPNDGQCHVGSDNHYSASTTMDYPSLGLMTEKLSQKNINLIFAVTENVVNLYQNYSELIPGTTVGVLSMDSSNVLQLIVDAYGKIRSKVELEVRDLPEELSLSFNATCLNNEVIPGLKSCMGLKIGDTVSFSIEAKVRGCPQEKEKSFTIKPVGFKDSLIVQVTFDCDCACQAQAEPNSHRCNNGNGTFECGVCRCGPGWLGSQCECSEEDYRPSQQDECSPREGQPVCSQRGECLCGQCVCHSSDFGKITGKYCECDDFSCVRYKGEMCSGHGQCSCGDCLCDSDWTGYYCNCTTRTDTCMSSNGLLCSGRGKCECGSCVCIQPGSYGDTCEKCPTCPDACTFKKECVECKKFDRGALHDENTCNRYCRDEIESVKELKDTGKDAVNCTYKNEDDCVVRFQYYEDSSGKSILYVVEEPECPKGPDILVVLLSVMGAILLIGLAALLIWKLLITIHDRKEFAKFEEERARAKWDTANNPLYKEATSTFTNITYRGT
Sequence of integrin αvβ3 on cells (M21 human melanoma cells; human umbilical vein endothelial cells) (human) (P06756 31-1048, chain 1 of 2): as the sequence (P06756 31-1048, form in doubt, chain 1 of 2) above
Sequence of integrin αvβ3 on cells (M21 human melanoma cells; human umbilical vein endothelial cells) (human) (P05106 27-788, chain 2 of 2, further chain): as the sequence (P05106 27-788, form in doubt, chain 2 of 2) above

Molecule | EC50 (read off the curve) [2] [µg/mL] | other results
monoclonal antibody LM609 (murine IgG) |  | decrease in vitronectin-induced migration of human umbilical vein endothelial cells (transwell), antibody at 5 µg/ml [1]: 60%
B1 | ~0.4 | 
B2 |  | IC50 (read off the curve) [3]: ~0.1 µg/mL
B3 | ~0.1 | 
